Measured values taken from publication PMC10786891, “Massively parallel profiling of RNA-targeting CRISPR-Cas13d”.
Changes are numbered by the printed parent chain. Names and notes keep the numbering of the source.

Target: T1, EsCas13d, nuclease-dead (Eubacterium siraeum, UniProt B0MS50, R295A;H300A;R849A;H854A)
T1 sequence: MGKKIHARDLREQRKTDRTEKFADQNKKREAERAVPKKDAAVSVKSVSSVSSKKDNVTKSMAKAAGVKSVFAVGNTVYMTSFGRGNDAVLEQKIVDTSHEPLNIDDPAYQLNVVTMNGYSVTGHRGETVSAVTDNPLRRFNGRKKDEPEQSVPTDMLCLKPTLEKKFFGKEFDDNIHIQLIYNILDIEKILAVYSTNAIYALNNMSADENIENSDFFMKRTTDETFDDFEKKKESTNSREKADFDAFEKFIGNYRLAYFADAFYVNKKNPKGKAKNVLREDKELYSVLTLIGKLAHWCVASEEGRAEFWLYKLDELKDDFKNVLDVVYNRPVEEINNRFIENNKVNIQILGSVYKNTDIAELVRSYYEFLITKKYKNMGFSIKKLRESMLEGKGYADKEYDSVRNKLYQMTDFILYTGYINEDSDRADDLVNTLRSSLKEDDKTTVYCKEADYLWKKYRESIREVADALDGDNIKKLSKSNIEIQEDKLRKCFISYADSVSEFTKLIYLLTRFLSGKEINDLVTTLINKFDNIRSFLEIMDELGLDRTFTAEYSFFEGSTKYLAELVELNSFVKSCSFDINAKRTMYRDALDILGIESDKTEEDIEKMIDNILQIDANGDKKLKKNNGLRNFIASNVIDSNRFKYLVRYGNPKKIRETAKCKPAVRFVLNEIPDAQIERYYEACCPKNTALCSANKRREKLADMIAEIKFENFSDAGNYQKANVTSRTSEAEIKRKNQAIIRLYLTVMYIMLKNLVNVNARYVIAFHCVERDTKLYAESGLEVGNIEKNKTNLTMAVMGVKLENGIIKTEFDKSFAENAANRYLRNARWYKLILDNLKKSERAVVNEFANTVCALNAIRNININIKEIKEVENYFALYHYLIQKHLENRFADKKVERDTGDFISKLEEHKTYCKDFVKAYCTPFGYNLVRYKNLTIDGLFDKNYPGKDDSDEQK
Assay: crRNA (strand 1, pre-loaded); Mg2+; 40 mM Tris-HCl pH 7.5, 150 mM NaCl, 6 mM MgCl2, 1 mM DTT, 0.1% Tween-20, 0.2 mg/ml BSA; 25 C; 10 min per concentration, then washed
Conditions: tags: His6-TwinStrep-SUMO cleaved; N-terminal SNAP kept (SNAP-Surface 488); label: 3' end held by stalled T7 RNA polymerase

B1: target 3 C1G,G4U (mixed)
RNA 1: CACCCGUGCAAAAUUGCAGGGGUCUAAAACGACCUGAAUAUUUCAGAUCAAA
RNA 2: GGGAAUGGAUCCACAUCUACGAAUUCGUUUUUGAUCUGAAAUAUUCAUGUGUGCAGAUCGGAAGAGCACACGU
In the case of B1, the Kd is reported as 13.4 ± 1.65 nM.

B2: target 3 insA 3' of 6,insG 3' of 2 (mixed)
RNA 1: B1 RNA 1
RNA 2: GGGAAUGGAUCCACAUCUACGAAUUCGUUUUUGAUCUGAAAUAUUCAAGGUGCUGCAGAUCGGAAGAGCACACGU
For B2, the Kd was 4.05 ± 0.6 nM.

B3: target 3 G4A,U8A (mixed)
RNA 1: B1 RNA 1
RNA 2: B1 RNA 2 with U44A, U48A, G51C
B3 gave a Kd of 76.5 ± 9.5 nM.

B4: target 3 G3C,A5G (mixed)
RNA 1: B1 RNA 1
RNA 2: B1 RNA 2 with A47G, U48G, G49C, G51C
With B4 the Kd was 16.1 ± 1.4 nM.

B5: target 3 del2,del4 (mixed)
RNA 1: B1 RNA 1
RNA 2: GGGAAUGGAUCCACAUCUACGAAUUCGUUUUUGAUCUGAAAUAUUCAGCUGCAGAUCGGAAGAGCACACGU
With B5 the Kd was 36.9 ± 5.2 nM.

B6: target 3 U20C (mixed)
RNA 1: B1 RNA 1
RNA 2: B1 RNA 2 with U32C, U48G, G51C
B6 gave a Kd of 62.5 ± 18 nM.

B7: target 3 G3C,C6A (mixed)
RNA 1: B1 RNA 1
RNA 2: B1 RNA 2 with C46A, U48G, G49C, G51C
B7 was tested, and the Kd was 27 ± 2 nM.

B8: target 3 U2G,U10A (mixed)
RNA 1: B1 RNA 1
RNA 2: B1 RNA 2 with U42A, U48G, U50G, G51C
For B8, the Kd was 63 ± 16 nM.

B9: target 3 insC 3' of 22,insA 3' of 6 (mixed)
RNA 1: B1 RNA 1
RNA 2: GGGAAUGGAUCCACAUCUACGAAUUCGUUUCUUGAUCUGAAAUAUUCAAGGUCUGCAGAUCGGAAGAGCACACGU
In the case of B9, the Kd is reported as 14.8 ± 1.95 nM.

B10: target 3 insU 3' of 6,insC 3' of 5 (mixed)
RNA 1: B1 RNA 1
RNA 2: B2 RNA 2 with A47U, G49C, U51G, G52U
B10 was tested, and the Kd was 15.4 ± 1.45 nM.

B11: target 3 G4U,U22G (mixed)
RNA 1: B1 RNA 1
RNA 2: B1 RNA 2 with U30G, G51C
For B11, the Kd was 37 ± 6 nM.

B12: target 3 G4C,C6U (mixed)
RNA 1: B1 RNA 1
RNA 2: B1 RNA 2 with C46U, U48C, G51C
B12 gave a Kd of 20.2 ± 1.85 nM.

B13: target 3 C1G,G3A (mixed)
RNA 1: B1 RNA 1
RNA 2: B1 RNA 2 with U48G, G49A
B13 was tested, and the Kd was 80 ± 40 nM.

B14: target 3 C1U,U8G (mixed)
RNA 1: B1 RNA 1
RNA 2: B1 RNA 2 with U44G, U48G, G51U
B14 showed a Kd of 64.5 ± 16.5 nM.

B15: target 3 insC 3' of 4,insU 3' of 4 (mixed)
RNA 1: B1 RNA 1
RNA 2: B2 RNA 2 with A48G, G49C, G50U, U51G, G52U
B15 showed a Kd of 25 ± 3.25 nM.

B16: target 3 insU 3' of 14,insG 3' of 2 (mixed)
RNA 1: B1 RNA 1
RNA 2: B2 RNA 2 with A39U, U42A, A43U, U44A, C46U, A47C
B16 gave a Kd of 33.5 ± 11 nM.

B17: target 3 C1U,A5C (mixed)
RNA 1: B1 RNA 1
RNA 2: B1 RNA 2 with A47C, U48G, G51U
B17 showed a Kd of 60.5 ± 9.5 nM.

B18: target 3 insA 3' of 8,insC 3' of 3 (mixed)
RNA 1: B1 RNA 1
RNA 2: B2 RNA 2 with U45A, C46U, A47C, U51C, G52U
B18 was tested, and the Kd was 43 ± 7 nM.

B19: target 3 insA 3' of 21,insG 3' of 6 (mixed)
RNA 1: B1 RNA 1
RNA 2: B9 RNA 2 with C31U, U32A, A48G
Work on B19 yielded a Kd of 48.5 ± 6.5 nM.

B20: target 3 U2C,G4A (mixed)
RNA 1: B1 RNA 1
RNA 2: B1 RNA 2 with U48A, U50C, G51C
B20 was tested, and the Kd was 16.9 ± 2.45 nM.

B21: target 3 insG 3' of 9,insA 3' of 3 (mixed)
RNA 1: B1 RNA 1
RNA 2: B2 RNA 2 with U44G, C46U, A47C, U51A, G52U
Work on B21 yielded a Kd of 55.5 ± 12.5 nM.

B22: target 3 insG 3' of 7,insG 3' of 7 (mixed)
RNA 1: B1 RNA 1
RNA 2: B2 RNA 2 with C46G, A47G, A48C, G49A, U51G, G52U
Binder B22 has a Kd of 41.5 ± 5.5 nM.

B23: target 3 insG 3' of 18,insU 3' of 1 (mixed)
RNA 1: B1 RNA 1
RNA 2: B9 RNA 2 with C31U, U33G, G34A, A35G, A49G, G51U, U52C, C53U
In the case of B23, the Kd is reported as 82.5 ± 17 nM.

B24: target 3 del2,del22 (mixed)
RNA 1: B1 RNA 1
RNA 2: GGGAAUGGAUCCACAUCUACGAAUUCGUUUUGAUCUGAAAUAUUCAGGCUGCAGAUCGGAAGAGCACACGU
In the case of B24, the Kd is reported as 5.25 ± 0.7 nM.

B25: target 3 A18G,U21C (mixed)
RNA 1: B1 RNA 1
RNA 2: B1 RNA 2 with U31C, A34G, U48G, G51C
B25 showed a Kd of 75 ± 26 nM.

B26: target 1 A1C,U3C (mixed)
RNA 1: CACCCGUGCAAAAAUGCAGGGGUCUAAAACUGAGCGGAUAACCUCUCUAUGG
RNA 2: GGGAAUGGAUCCACAUCUACGAAUUCGUACCAUAGAGAGGUUAUCCGCCCCCCGAGAUCGGAAGAGCACACGU
B26 showed a Kd of 18 ± 4 nM.

B27: target 1 insC 3' of 20,insU 3' of 9 (mixed)
RNA 1: B26 RNA 1
RNA 2: GGGAAUGGAUCCACAUCUACGAAUUCGUACCACUAGAGAGGUUAUUCCGCUCACCGAGAUCGGAAGAGCACACGU
B27 was tested, and the Kd was 8 ± 0.9 nM.

B28: target 1 insA 3' of 17,insG 3' of 4 (mixed)
RNA 1: B26 RNA 1
RNA 2: B27 RNA 2 with C33U, U34A, A35G, G36A, U46C, C48G, G49C, C50G
In the case of B28, the Kd is reported as 10.2 ± 0.4 nM.
